Here are results for one protein from publication PMC11408154, “Anti-mutagenic agent targeting LexA to combat antimicrobial resistance in mycobacteria” (The Journal of Biological Chemistry, 2024).

The series deals with the molecule itself. Kind of series: cross-linking; glutaraldehyde cross-linking of Mtb LexA with or without 3-nPBA (protein to inhibitor 1:100); stopped with 25 mM DTT; 12% SDS-PAGE.

B1: Mycobacterium tuberculosis LexA (natural protein)
chain: MNDSNDTSVAGGAAGADSRVLSADSALTERQRTILDVIRASVTSRGYPPSIREIGDAVGLTSTSSVAHQLRTLERKGYLRRDPNRPRAVNVRGADDAALPPVTEVAGSDALPEPTFVPVLGRIAAGGPILAEEAVEDVFPLPRELVGEGTLFLLKVIGDSMVEAAICDGDWVVVRQQNVADNGDIVAAMIDGEATVKTFKRAGGQVWLMPHNPAFDPIPGNDATVLGKVVTVIRKV
notes: also called Mtb LexA; WT Mtb LexA
Turning to B1, the binding result is “binds”.
